Patent US20150139990A1 (DAINIPPON SUMITOMO PHARMA, published 2015)

What was measured:
Assay in all cases: ELISA
human CD81 mutant V135A = target: T1, human CD81 mutant V135A (human, UniProt P60033 1-236, limits assumed)
T1 construct: as m30; not shown: C-terminal V5 and 6xHis tags
T1 sequence: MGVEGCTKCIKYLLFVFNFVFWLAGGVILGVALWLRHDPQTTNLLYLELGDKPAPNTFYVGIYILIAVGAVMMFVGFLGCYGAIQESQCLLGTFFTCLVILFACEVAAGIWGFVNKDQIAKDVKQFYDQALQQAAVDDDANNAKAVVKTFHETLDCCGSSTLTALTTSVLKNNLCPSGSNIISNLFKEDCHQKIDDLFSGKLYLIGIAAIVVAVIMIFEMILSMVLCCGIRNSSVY
Method in brief: (§1)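 Relative binding affinity was taken as the percentage of binding to unmodified CD81, corrected for V5-tag expression. The altered CD81 proteins, tagged with V5 and 6×His, were expressed in CHO cells for 48 hours, and 1% n-octylglucoside membrane extracts were loaded onto Ni-NTA His Sorb plates at 5 μg/100 μL/well (3 hours, 4° C). After 1 hour of antibody binding at room temperature, detection used HRP anti-human IgG4 with TMB at 450 nm.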

human CD81 mutant G158S = target: T2, human CD81 mutant G158S (human, UniProt P60033 1-236, limits assumed)
T2 construct: as m30; not shown: C-terminal V5 and 6xHis tags
T2 sequence: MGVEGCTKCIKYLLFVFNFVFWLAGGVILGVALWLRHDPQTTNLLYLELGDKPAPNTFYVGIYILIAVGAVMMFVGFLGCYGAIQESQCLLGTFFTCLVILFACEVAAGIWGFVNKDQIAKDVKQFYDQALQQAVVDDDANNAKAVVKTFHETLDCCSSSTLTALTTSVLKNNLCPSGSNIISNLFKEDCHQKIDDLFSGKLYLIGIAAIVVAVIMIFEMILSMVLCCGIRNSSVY
Method in brief: as §1

human CD81 mutant A164T = target: T3, human CD81 mutant A164T (human, UniProt P60033 1-236, limits assumed)
T3 construct: as m30; not shown: C-terminal V5 and 6xHis tags
T3 sequence: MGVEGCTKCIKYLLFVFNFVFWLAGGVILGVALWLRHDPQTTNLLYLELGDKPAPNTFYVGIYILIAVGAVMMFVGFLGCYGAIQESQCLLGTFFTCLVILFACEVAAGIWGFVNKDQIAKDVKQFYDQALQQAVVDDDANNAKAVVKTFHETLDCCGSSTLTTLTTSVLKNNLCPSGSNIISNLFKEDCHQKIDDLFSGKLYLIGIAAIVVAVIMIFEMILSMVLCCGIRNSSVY
Method in brief: as §1

human CD81 mutant L165A = target: T4, human CD81 mutant L165A (human, UniProt P60033 1-236, limits assumed)
T4 construct: as m30; not shown: C-terminal V5 and 6xHis tags
T4 sequence: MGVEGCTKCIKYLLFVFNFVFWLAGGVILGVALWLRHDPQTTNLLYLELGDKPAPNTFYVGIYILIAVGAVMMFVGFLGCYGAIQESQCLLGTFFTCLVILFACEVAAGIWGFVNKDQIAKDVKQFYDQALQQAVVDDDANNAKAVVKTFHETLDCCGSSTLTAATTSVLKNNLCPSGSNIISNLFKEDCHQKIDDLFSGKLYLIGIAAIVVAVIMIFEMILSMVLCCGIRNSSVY
Method in brief: as §1

human CD81 mutant V169A = target: T5, human CD81 mutant V169A (human, UniProt P60033 1-236, limits assumed)
T5 construct: as m30; not shown: C-terminal V5 and 6xHis tags
T5 sequence: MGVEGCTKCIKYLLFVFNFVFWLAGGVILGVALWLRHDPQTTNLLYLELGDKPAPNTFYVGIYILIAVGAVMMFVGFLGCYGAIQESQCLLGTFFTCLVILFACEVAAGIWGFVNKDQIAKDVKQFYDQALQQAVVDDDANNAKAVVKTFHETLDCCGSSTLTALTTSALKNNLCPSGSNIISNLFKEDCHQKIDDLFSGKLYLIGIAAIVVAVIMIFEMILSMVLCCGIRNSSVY
Method in brief: as §1

human CD81 mutant V135L = target: T6, human CD81 mutant V135L (human, UniProt P60033 1-236, limits assumed)
T6 construct: as m30; not shown: C-terminal V5 and 6xHis tags
T6 sequence: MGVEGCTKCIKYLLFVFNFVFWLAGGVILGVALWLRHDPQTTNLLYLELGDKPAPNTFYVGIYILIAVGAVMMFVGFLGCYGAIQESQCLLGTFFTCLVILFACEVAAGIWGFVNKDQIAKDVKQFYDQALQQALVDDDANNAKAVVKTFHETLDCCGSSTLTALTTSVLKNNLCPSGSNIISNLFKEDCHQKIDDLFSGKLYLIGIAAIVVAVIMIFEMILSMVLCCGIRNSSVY
Method in brief: as §1

human CD81 mutant G158A = target: T7, human CD81 mutant G158A (human, UniProt P60033 1-236, limits assumed)
T7 construct: as m30; not shown: C-terminal V5 and 6xHis tags
T7 sequence: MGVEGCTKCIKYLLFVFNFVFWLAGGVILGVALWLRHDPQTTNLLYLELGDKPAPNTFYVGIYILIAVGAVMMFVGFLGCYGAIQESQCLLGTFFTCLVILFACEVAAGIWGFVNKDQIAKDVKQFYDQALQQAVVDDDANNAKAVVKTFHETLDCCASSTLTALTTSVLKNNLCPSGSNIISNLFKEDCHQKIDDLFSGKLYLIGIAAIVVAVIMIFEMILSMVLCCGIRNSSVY
Method in brief: as §1

human CD81 mutant S168T = target: T8, human CD81 mutant S168T (human, UniProt P60033 1-236, limits assumed)
T8 construct: as m30; not shown: C-terminal V5 and 6xHis tags
T8 sequence: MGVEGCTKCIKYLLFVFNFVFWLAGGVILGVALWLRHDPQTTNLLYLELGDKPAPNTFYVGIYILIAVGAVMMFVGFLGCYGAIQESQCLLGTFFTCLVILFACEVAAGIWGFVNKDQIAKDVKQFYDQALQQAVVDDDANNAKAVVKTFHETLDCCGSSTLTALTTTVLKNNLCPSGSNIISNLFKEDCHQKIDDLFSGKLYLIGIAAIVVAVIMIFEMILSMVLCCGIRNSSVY
Method in brief: as §1

human CD81 mutant V169L = target: T9, human CD81 mutant V169L (human, UniProt P60033 1-236, limits assumed)
T9 construct: as m30; not shown: C-terminal V5 and 6xHis tags
T9 sequence: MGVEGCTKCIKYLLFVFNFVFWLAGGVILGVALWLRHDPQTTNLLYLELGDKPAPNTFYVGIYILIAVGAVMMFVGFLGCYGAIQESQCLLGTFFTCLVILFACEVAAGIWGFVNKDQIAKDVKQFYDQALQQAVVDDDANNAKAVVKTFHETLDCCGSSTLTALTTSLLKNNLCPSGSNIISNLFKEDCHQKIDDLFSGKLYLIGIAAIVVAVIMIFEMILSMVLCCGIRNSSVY
Method in brief: as §1

relative binding affinity (human CD81 mutant V135A): < 20% | relative binding affinity (human CD81 mutant G158S): < 20% | relative binding affinity (human CD81 mutant A164T): < 20% | relative binding affinity (human CD81 mutant L165A): < 20% | relative binding affinity (human CD81 mutant V169A): < 20% | relative binding affinity (human CD81 mutant V135L): < 20% | relative binding affinity (human CD81 mutant G158A): < 20% | relative binding affinity (human CD81 mutant S168T): < 20% | relative binding affinity (human CD81 mutant V169L): < 20%
B1: 002-A07 IgG4 antibody (antibody)
heavy: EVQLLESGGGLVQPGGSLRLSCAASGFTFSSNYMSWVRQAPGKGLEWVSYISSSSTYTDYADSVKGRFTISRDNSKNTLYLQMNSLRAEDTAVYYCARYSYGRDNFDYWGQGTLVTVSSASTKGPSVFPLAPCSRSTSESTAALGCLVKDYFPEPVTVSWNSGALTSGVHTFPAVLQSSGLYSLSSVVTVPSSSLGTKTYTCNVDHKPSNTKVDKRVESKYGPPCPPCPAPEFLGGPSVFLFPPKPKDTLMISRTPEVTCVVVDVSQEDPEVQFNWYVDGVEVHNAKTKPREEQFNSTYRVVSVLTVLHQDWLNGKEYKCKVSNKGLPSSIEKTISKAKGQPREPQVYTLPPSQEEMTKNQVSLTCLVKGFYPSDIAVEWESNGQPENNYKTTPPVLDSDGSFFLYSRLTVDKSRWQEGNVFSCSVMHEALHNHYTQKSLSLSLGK
light: QSVLTQPPSASGTPGQRVTISCTGSTSNIGAGYDTHWYQQLPGTAPKLLIYGNSNRPSGVPDRFSGSKSGTSASLAISGLRSEDEADYYCQSYDTNLSVWVFGGGTKLTVLGQPKAAPSVTLFPPSSEELQANKATLVCLISDFYPGAVTVAWKADSSPVKAGVETTTPSKQSNNKYAASSYLSLTPEQWKSHRSYSCQVTHEGSTVEKTVAPTECS
notes: human IgG4 S228P, lambda light chain
